We go through 1 substance from patent publication US20090208512A1.

In the experiment the target is human recombinant Factor VIII (human) (UniProt P00451). The experiment in a line: cell-based or functional assay.
UniProt P00451, sequence (P00451 20-2351): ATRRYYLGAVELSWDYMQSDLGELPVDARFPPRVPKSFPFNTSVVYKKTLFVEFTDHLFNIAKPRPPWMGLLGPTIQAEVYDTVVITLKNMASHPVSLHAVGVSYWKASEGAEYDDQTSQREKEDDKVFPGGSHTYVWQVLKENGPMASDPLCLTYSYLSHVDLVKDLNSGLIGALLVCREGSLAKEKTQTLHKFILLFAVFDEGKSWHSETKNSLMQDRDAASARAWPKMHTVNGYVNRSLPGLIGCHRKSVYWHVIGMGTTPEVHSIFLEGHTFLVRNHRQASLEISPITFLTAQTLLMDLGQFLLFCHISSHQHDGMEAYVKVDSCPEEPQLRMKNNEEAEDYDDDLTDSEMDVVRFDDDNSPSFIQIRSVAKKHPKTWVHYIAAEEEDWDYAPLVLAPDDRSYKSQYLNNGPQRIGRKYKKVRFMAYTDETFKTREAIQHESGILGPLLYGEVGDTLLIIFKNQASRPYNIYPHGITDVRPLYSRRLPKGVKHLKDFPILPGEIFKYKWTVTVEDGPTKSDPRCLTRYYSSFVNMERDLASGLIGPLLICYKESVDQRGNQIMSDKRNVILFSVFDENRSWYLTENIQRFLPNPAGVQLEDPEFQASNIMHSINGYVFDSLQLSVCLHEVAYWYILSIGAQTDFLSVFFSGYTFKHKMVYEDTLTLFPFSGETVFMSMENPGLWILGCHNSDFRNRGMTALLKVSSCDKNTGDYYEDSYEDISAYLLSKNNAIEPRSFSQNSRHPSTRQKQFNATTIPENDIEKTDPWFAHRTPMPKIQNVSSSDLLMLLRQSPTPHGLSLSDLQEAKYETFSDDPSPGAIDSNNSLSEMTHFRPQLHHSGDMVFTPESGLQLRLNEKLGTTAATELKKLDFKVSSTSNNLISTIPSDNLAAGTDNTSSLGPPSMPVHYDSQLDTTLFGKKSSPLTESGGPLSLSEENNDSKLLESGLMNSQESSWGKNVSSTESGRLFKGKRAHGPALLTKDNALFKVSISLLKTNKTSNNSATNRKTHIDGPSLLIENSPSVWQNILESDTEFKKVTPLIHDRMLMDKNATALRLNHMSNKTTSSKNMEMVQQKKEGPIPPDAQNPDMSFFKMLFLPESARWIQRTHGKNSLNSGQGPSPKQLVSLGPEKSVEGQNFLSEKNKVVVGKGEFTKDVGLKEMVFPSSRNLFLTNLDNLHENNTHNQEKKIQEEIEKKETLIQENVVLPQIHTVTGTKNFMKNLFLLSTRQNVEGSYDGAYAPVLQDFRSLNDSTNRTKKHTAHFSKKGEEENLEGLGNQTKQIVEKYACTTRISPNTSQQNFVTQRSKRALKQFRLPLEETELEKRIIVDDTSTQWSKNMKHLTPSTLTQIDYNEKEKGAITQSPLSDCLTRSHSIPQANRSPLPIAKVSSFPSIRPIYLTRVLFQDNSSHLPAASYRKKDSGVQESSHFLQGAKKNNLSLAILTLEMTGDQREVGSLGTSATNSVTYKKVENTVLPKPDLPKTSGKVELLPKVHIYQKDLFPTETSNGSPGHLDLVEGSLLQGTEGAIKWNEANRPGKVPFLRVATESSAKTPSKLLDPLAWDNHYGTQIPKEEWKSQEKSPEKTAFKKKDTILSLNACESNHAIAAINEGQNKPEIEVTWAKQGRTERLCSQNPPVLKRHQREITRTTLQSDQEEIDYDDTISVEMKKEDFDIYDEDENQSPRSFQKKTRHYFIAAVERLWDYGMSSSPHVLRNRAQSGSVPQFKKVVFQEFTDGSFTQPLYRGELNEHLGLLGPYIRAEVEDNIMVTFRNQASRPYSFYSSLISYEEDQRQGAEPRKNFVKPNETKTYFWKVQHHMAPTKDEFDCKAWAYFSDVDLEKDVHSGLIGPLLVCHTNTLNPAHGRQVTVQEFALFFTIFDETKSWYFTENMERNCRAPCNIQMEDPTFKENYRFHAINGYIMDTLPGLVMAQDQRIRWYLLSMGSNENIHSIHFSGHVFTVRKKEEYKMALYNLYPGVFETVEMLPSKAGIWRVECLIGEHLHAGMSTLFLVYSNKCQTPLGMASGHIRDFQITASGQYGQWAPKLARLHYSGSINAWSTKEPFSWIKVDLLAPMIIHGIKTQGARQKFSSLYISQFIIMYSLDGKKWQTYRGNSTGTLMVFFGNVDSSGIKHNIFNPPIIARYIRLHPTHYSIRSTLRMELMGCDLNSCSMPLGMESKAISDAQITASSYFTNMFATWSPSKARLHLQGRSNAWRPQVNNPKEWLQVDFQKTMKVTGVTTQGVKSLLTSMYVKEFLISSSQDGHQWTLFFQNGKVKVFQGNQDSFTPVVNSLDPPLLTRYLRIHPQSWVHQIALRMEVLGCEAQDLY

In the case of “von Willebrand Factor (from UniProt P04275 764-2813)”, the inhibition of hydrolysis of Factor VIII by anti-Factor VIII IgG turned out to be 36.9%.
